What was measured:
breast cancer specimens = experiment: IHC of tissue microarray, breast cancer; assay type: binding, human; conditions: 109 specimens, antibodies at 15 μg/mL
Text: (§1) Tissue microarrays are typically made up of hundreds of tissue specimens, where each specimen in the array comes from a different patient. The breast cancer array contained patient specimens of all types of invasive breast cancers, including less common forms such as carcinomas with medullary features and papillary carcinomas. The lung cancer array contained specimens from patients diagnosed with squamous cell carcinoma, adenocarcinoma, mucinous adenocarcinoma, adenosquamous carcinoma and large cell carcinoma. The pancreatic cancer tissue microarray contained specimens from patients with ductal adenocarcinomas.
Of the 109 breast cancer specimens, 56 stained positive with C2, 3C2B1, or both. Twenty-two (22) of the specimens stained robustly with C2 and stained less well or not at all with 3C2B1. The converse, 3C2B1 staining better than C2, was true in only 5 of the 109 specimens. Twenty-nine (29) specimens were stained essentially the same with C2 and 3C2B1 antibody.
(§2) Cancerous tissue arrays were purchased from Tissue Array (Derwood, MD). After deparaffinization, antigen retrieval (pH 6.0) was performed for 10 min. The sections incubated in blocking buffer (10% normal goat serum and 5% BSA in TBS) at room temperature for 1 hr before incubating in either C2 or 3C2B1 in 1% BSA-TBS overnight at 4° C. In this particular assay, both antibodies were used at a concentration of 15 μg/mL. […]

[1] = molecular target: PSMGFR N-30 (SEQ ID NO: 157) (Homo sapiens, UniProt P15941); experiment: Epitope mapping, binding to PSMGFR N-30 peptide
Text: (§3) FIG. 2B quantifies binding of the 3C2B1 anti-MUC1* antibody to the peptides of FIG. 2A.
(§4) The 3C2B1 epitope was mapped more precisely with additional PSMGFR peptide variants (FIGS. 2A, 2B).

[2] = tested on: HPAFII pancreatic cancer cells; experiment: Antibody internalization (pHrodo Deep Red), HPAFII; assay type: cell-based, human
Method: Internalization of antibody 3C2B1 into HPAFII pancreatic cancer cells (FIGS. 5A-5G) and OE19 esophageal cancer cells (FIGS. 5H-5N) was detectable after 8 hours and nearly complete at 16 hours. The results are quantified in FIG. 5O.
Antibodies C2 and 3C2B1 were coupled to a pH sensitive fluorophore using the pHrodo Deep Red TFP Ester kit (Thermo cat #P35356), according to manufacturer instructions. Cancer cells were seeded at ˜50,000 cells/well onto μ-Slide 8-well tissue culture-treated, chambered coverslip wells (Ibidi 80806) in their recommended media with 10% FBS. Cells were cultured for 48 hours. Slides were transferred into microscope chamber (37° C.—5% CO2) and equilibrated for ˜30 minutes. The pHrodo Deep Red coupled antibody was then diluted to a concentration of 200 to 300 μg/mL into pre-warmed media supplemented with 10% FBS. Media was removed from the chamber slides and the diluted antibodies were separately added. […]
Internalization of the fluorescently labeled antibodies was quantified as follows. […] The integrated pixel density (mean gray-scale value×area) was then measured by the ImageJ software. Positively-stained cells were manually counted and the integrated pixel density was divided by the number of positive cells to yield “Pixel Intensity per positive cell”.

H1975-MUC1*45 cells = experiment: Antibody internalization (pHrodo Deep Red), H1975-MUC1*45; assay type: cell-based, human
Method: (§5) Antibodies C2 and 3C2B1 were tested for their ability to be internalized by H1975 lung cancer cells (H1975-wt) and H1975 cells that were engineered to express high levels of a recombinant MUC1* polypeptide with a 45 amino acid extracellular domain (H1975-MUC1*45). In contrast to the T47D breast cancer cells, H1975-wt cells internalized 3C2B1 faster than they internalized C2 (FIGS. 4A1-4A28, 4C1-4C28 and 4E). Two (2) hours post incubation with H1975-wt cells, […] the cells had internalized C2. […] Similar to the T47D cells, MUC1*45 expression increased the internalization rate of C2 and decreased the internalization rate of 3C2B1 (FIGS. 4B1-4B28, 4D1-4D28 and 4E).
(§6) Antibodies C2 and 3C2B1 were coupled to a pH sensitive fluorophore using the pHrodo Deep Red TFP Ester kit (Thermo cat #P35356), according to manufacturer instructions. Cancer cells were seeded at ˜50,000 cells/well onto μ-Slide 8-well tissue culture-treated, chambered coverslip wells (Ibidi 80806) in their recommended media with 10% FBS. Cells were cultured for 48 hours. Slides were transferred into microscope chamber (37° C.—5% CO2) and equilibrated for ˜30 minutes. The pHrodo Deep Red coupled antibody was then diluted to a concentration of 200 to 300 μg/mL into pre-warmed media supplemented with 10% FBS. Media was removed from the chamber slides and the diluted antibodies were separately added. Fluorescent (655 nm) and phase contrast images at were collected every 10 min for 12h or 16 h with a Leica Thunder Live Cell 3D microscope.
(§7) Internalization of the fluorescently labeled antibodies was quantified as follows. Images were imported into ImageJ. The selection tool was used to draw a region of interest (ROI) on the image. The integrated pixel density (mean gray-scale value×area) was then measured by the ImageJ software. Positively-stained cells were manually counted and the integrated pixel density was divided by the number of positive cells to yield “Pixel Intensity per positive cell”.

[3] = Toxicity in animal studies; assay type: in vivo; conditions: each antibody incorporated into several ADC formats
Text: Exatecans and deruxtecans can also have bystander effects. […] It is not completely clear whether these side effects are due to the payload or to the HER2 target, which is also expressed on normal lung and normal heart. The first two patients treated with a HER2 targeting CAR T cell product died shortly after the infusion. […] More recently, yet another patient died after being treated with a different HER2-targeting ADC. […] 32CB1, C2 and 20A10 unexpectedly have an extremely high degree of cancer specificity and elicited no toxicities in animal studies, where each antibody was incorporated into several ADC formats.

lung cancer specimens = experiment: IHC of tissue microarray, lung cancer; assay type: binding, human; conditions: 108 specimens, antibodies at 15 μg/mL
Text: as §1
Of the 108 lung cancer specimens, a total of 61 stained positive with C2, 3C2B1, or both. […] The converse, C2 staining better than 3C2B1, was true in only 5 of the 108 specimens, and these specimens stained weakly with both antibodies. A total of 37 specimens were stained essentially the same with 3C2B1 and C2 antibody.
as §2

[4] = molecular target: PSMGFR N-19 C-5 (SEQ ID NO: 159) (Homo sapiens, UniProt P15941); experiment: Epitope mapping, binding to PSMGFR N-19 C-5 peptide
Text: as §3, §4

[5] = molecular target: PSMGFR N-10 peptide (SEQ ID NO: 2) (Homo sapiens, UniProt P15941); experiment: ELISA binding to PSMGFR N-10 peptide
Text: (§8) Cancer selective anti-MUC1* antibodies bind to a membrane proximal conformational epitope within the MUC1* extracellular domain, as described in WO 2020/146902.
as §4

[6] = tested on: H1975 lung cancer cells (H1975-wt); experiment: Antibody internalization (pHrodo Deep Red), H1975-wt; assay type: cell-based, human; conditions: H1975-wt cells
Method: as §5, §6, §7

[7] = molecular target: PSMGFR peptide (SEQ ID NO: 1) (Homo sapiens, UniProt P15941); experiment: ELISA binding to PSMGFR peptide
Text: MUC1* is a cancer-specific antigen produced by proteolytic cleavage of the extracellular domain of MUC1. The extracellular domain of MUC1* comprises about 45 amino acids. Monoclonal antibodies generated against the PSMGFR peptide (SEQ ID NO: 1) bind to MUC1*, as described in WO 2020/146902.
as §8, §4

PSMGFR peptide (SEQ ID NO: 1), sequence (P15941 1110-1154): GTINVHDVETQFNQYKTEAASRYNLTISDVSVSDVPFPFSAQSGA
PSMGFR N-10 peptide (SEQ ID NO: 2), sequence (P15941 1120-1154 limits assumed): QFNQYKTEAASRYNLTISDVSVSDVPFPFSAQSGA
PSMGFR N-19 C-5 (SEQ ID NO: 159), sequence (P15941 1129-1149 limits assumed): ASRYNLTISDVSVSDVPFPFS

B1: 3C2B1: anti-MUC1* monoclonal antibody that bound to the PSMGFR peptide (antibody, V domains shown)
VH: EVMLVESGGGLVKPGGSLKLSCAASGITFSTYTMSWVRQTPEKRLEWVATISTGGDKTYYSDSVKGRFTISRDNAKNNLYLQMSSLRSEDTALYYCARGTTAMYYYAMDYWGQGTSVTVSS
VL: DIVLTQSPASLAVSLGQRATISCRASKSISTSDYNYIHWYQQKPGQPPKLLIYLASNLESGVPARFSGSGSGTDFTLNIHPVEEEDAATYYCQHSRELPLTFGAGTKLELK
Breast cancer specimens
  3C2B1 > C2 (number of specimens stained better with 3C2B1): 5
[1]
  binding to N-30 variant PSMGFR peptide: bound
[2]
  time after which internalization was detectable: 8 h
  time at which internalization was nearly complete: 16 h
H1975-MUC1*45 cells; H1975-MUC1*45 cells
  time by which essentially all the cells had internalized the antibody: 8 h
H1975-MUC1*45 cells; H1975-MUC1*45 vs H1975-wt
  effect of MUC1*45 expression on internalization rate: decreased
[3]
  toxicities in animal studies: no toxicities
Lung cancer specimens
  3C2B1 > C2 (number of specimens stained better with 3C2B1): 19
[4]
  binding to N-19 C-5 variant PSMGFR peptide: bound
[5]
  binding to PSMGFR N-10: bind
[6]
  internalization rate compared to C2: faster
  time by which essentially all the cells had internalized the antibody: ≤ 6 h
[6]; 2 hours post incubation
  fraction of cells that had internalized antibody: about one third
[6]; by 4 hours
  fraction of cells that had internalized antibody: more than a half
[7]
  binding to the PSMGFR 45mer peptide: bind

Reference: patent publication US20260137799A1, “ANTI-MUC1* ANTIBODY DRUG COMPLEXES AND USES THEREOF” (Minerva Biotechnologies Corporation, priority 2023, published 2026)
